Laboratory results from patent US20240382610A1 (TALLAC THERAPEUTICS, published 2024).
Changes are numbered by the printed parent chain.

B1: TNT-328 (antibody, V domains shown)
VH: QVQLQESGPGLVKPSETLSLTCTVSGGSMSSYFWSWIRQPPERGLEWVGYMYYSGNTNYNPSLKSRVTTSIDTSKNQFSLKLTSVTAADTAVYYCARSGNFYWNFDLWGRGTLVTVSS
VL: QSVLTQPPSVSGAPGQRVTISCTGSSSNIGAGYNVHWYQQLPGTAPKVLISGNSNRPSGVPDRFSGSKSGTSASLAITGLQAEDEADYYCQSYDSSLSGSAVFGGGTKLTVLG
notes: human IgG1
B2: TNT-324 (antibody, V domains shown)
VH: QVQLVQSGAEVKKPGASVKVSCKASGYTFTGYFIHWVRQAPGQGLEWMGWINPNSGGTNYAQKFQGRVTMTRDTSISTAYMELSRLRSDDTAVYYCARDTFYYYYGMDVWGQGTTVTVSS
VL: QTVVTQEPSLTVSPGGTVTLTCASSTGAVTSGYYPNWFQQKPGQAPRALIYSTSNKHSWTPARFSGSLLGGKAALTLSGVQPEDEAEYYCLLYYDGAHLFGGGTKLTVLG
notes: human IgG1
B3: TNT-205 (antibody, human IgG1, kappa)
heavy: not shown
light: DIVMTQSPSSLSASVGDRVTITCRASQGISNYLAWYQQKPGKVPKLLIYAASTLQSGVPSRFSGSGSGTDFTLTISSLQPEDVATYYCQKYNSAPYTFGQGTKVEIKRTVAAPSVFIFPPSDEQLKSGTASVVCLLNNFYPREAKVQWKVDNALQSGNSQESVTEQDSKDSTYSLSSTLTLSKADYEKHKVYACEVTHQGLSSPVTKSFNRGEC
B4: TNT-211 (antibody, human IgG1, kappa)
heavy: not shown
light: B3 light with D70E, T74A, V83L, K90Q, Y91L, A94H, Y96I, K103R, V104L
B5: TNT-317 (antibody, V domains shown)
VH: QVQLQESGPGLVKPSETLSLTCTVSGGSISSYFWSWIRQPPGKGLEWIGYIYYSGNTNYNPSLKSRVTISVDMSKNQFSLRLSSVTAADTAVYYCARDFHHYDGSAYRWYFDLWGRGTLVTVSS
VL: QSVLTQPPSVSAAPGQKVTISCSGSSSNIGNNYVSWYQQFPGTAPKLLIYDNNKRPSGIPDRFSGSKSGTSATLGITGLQTGDEADYYCGTWDSSLNAGWVFGGGTKLTVLG
notes: human IgG1
B6: TNT-322 (antibody, V domains shown)
VH: QVQLQESGPGLVKPSATLSLTCTVSGGSISSYYWNWIRQPPGKGLEWIGYIYYSGNTNYNPSLKSRVTISVDMSKNQFSLKLNSVTAADTAVYYCARSESYGYWFFYLWGRGTLVTVSS
VL: B5 VL with N97S, W100V
notes: human IgG1
B7: TNT-331 (antibody, V domains shown)
VH: QVHLQESGPGLVKPSETLSLTCTVSGGSIRSYYWSWIRQPAGKGLEWIGRIYTSGSTNYNPSLKSRVTMSVDTSKNRLSLKLSSVTAADTAVYYCAKENWGPSFDYWGQGTLVTVSS
VL: B5 VL with F40L, S94T, N97S, A98S, V101L
notes: human IgG1
B8: TNT-330 (antibody, V domains shown)
VH: EVQLVESGGGLVKPGGSLRLSCAVSGFTFSSYNMNWVRQAPGKGLEWVSSISISSSYIYYADSVKGRFTISRDNAKNSLYLQMNSLRAEDTAVYYCARDRGLDDAFDIWGQGTVVTVSS
VL: DIVMTQTPLSLPVTPGEPASISCRSSQSLLDSDDGNTYLDWYLQKPGQSPQLLIYTLSYRASGVPDRFSGSGSGTDFTLKVSRVEAEDVGVYYCMQRIEFPYTFGQGTKLEIKR
notes: human IgG1
B9: TNT-318 (antibody, V domains shown)
VH: QVQLQESGPGLVKPSETLSLTCTVSGGSISSNYWTWIRQSAGKGLEWIGRIHISESTNYNPSLKSRVTMSVDTSKNQFSLKLSSVTAADTAVYFCAREGEWKVLGAFDIWGQGTMVTVSS
VL: QTVLTQPSSLSASPGASASLTCTLRSGINVGSYRIYWYQQKPGSPPQFLLRYKSDSDKQQGSGVPSRFSGSKDDSANAGILLISGLQSEDEADYYCMIWHSSASVFGTGTKVTVLG
notes: human IgG1
B10: TNT-321 (antibody, V domains shown)
VH: QVQLQESGPGLVKPSETLSLTCTVSGGSISSYYWSWIRQPPGKGLEWIGYIYYSGNVNYNPSLKSRVTISVDASKNQFSLKLTSVTAADTAVYYCAIGGVGAQWDAFDIWGQGTMVTVSS
VL: DIQMTQSPSAMSASVGDRVTITCRASQGISNYLAWFQQKPGKVPKRLIYAASSLQSGVPSRFSGSGSGTEFTLTISSLQPEDFATYYCLQHSFYPLTFGPGTKVDIKR
notes: human IgG1
B11: TNT-320 (antibody, V domains shown)
VH: QVQLVQSGAEVKKPGASVKVSCKASGYTFTVYYIHWVRQAPGQGLEWMGWISPNSGGTNYAQKFQGRVTMTRDTSISTAYMELTRLRSDDTAIFYCARQTVVTPNWGFDYWGQGTLVTVSS
VL: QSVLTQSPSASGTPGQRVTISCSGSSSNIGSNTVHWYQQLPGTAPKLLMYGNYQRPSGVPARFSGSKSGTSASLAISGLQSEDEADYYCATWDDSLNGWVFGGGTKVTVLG
notes: human IgG1
B12: TNT-327 (antibody, V domains shown)
VH: QVQLQESGPGLVKPSETLSLTCTVSGGSISDYYWIWIRQPAGKGLEWIGRIYTTGGAKYNPSLKSRVTMSIDTSKNNFSLKLSSVTAADTAVYFCARDRNWEWNFDLWGRGTLVTVSS
VL: QSALTQPASVSGSPGQSITISCTGTTSDIGSYNLVSWYQQHPGKAPKLMIYEVSMSPSGVSDRFSGSKSGSTASLTISGLQAEDEADYYCSSYAGSSTVVFGGGTRLTVLG
notes: human IgG1
B13: TNT-323 (antibody, V domains shown)
VH: QVQLQESGPGLVKPSETLSLTCTVSGGSISSYFWNWIRQPPGKGLEWIGYLYYIGTTNYNPSLKSRVTISVDTSKNQFSLKLNSVTAADTAVYYCARSGNYYNDAFDIWGQGTMVTVSS
VL: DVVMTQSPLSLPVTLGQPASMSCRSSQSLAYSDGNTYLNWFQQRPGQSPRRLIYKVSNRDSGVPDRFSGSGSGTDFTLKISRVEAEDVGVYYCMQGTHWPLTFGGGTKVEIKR
notes: human IgG1

What follows are binders tested against T1, Human nectin-4 ECD-6His (TNT-175) (human, UniProt Q96NY8 32-349) (assay: SPR Biacore 8K, mAb on protein A).
T1 construct: the entry holds the extracellular domain with the C-terminal 6His tag
T1 sequence: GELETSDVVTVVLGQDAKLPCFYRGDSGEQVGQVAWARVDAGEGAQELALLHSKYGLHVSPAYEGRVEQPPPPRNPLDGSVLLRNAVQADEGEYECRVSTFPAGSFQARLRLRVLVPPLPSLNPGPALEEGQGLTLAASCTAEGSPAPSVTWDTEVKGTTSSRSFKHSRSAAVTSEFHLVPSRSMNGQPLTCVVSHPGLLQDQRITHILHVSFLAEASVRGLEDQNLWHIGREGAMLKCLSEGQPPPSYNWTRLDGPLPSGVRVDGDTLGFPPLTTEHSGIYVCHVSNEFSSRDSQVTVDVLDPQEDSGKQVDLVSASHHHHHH
Method: (§1) The running buffer was 10 mM HEPES, pH 7.4, 150 mM NaCl, 3 mM EDTA, 0.05% (v/v) Surfactant P20 (HBS-EP+). […] The nectin-4 analytes were injected in either single-cycle kinetics or multi-cycle kinetics mode at nominal starting concentrations of 300 nM or 900 nM with 3-fold serial dilutions. Association times were monitored for 120 s, and dissociation times were monitored 1800 s at 30 μL/min flow rate. The surfaces were regenerated with 10 mM glycine at pH1.7 or 75 mM phosphoric acid at pH1.6 for two pulses of 15 s at 30 μL/min flow rate.
(§2) The data were processed and analyzed with Biacore 8K Evaluation Software Version 3.0.12.15655 (Cytiva, Global Life Sciences Solutions USA LLC, Marlborough, MA). […] The responses from the nearest buffer blank injection were then subtracted from the reference subtracted data (2-1) to yield double-referenced data. These double-reference data were fit to a simple 1:1 Langmuir binding model with mass transport to determine the apparent association (ka) and dissociation rate constants (kd). The apparent equilibrium dissociation constant or affinity constant was then calculated based on their ratio as (KD=kd/ka).

| Binder | Kd |
| --- | --- |
| B1 | 1.59 nM |
| B2 | 64.5 nM |
| B3 | 53.9 nM |
| B4 | 24.3 nM |
| B5 | 15.7 nM |
| B6 | 57.9 nM |
| B7 | 87.4 nM |
| B8 | 16.4 nM |
| B9 | 260 nM |
| B10 | 14 nM |
| B11 | 18.4 nM |
| B12 | 3.63 nM |
| B13 | 9 nM |

What follows are binders tested against T2, Human nectin-4-IgV-6His (TNT-252) (human, UniProt Q96NY8 32-147) (assay: SPR Biacore 8K, mAb on protein A).
T2 construct: entry includes the 6His tag
T2 sequence: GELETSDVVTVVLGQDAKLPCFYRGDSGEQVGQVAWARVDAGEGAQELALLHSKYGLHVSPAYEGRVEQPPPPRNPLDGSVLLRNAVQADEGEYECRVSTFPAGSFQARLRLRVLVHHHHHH
Method: as §1, §2

| Binder | binding result | Kd |
| --- | --- | --- |
| B1 | no binding (tested: up to 300 or 900 nM analyte) | – |
| B2 | – | 30.7 nM |
| B3 | – | 75.3 nM |
| B4 | – | 24.3 nM |
| B5 | no binding (tested: up to 300 or 900 nM analyte) | – |
| B6 | no binding (tested: up to 300 or 900 nM analyte) | – |
| B7 | no binding (tested: up to 300 or 900 nM analyte) | – |
| B8 | – | 7.3 nM |
| B9 | no binding (tested: up to 300 or 900 nM analyte) | – |
| B10 | – | 11.6 nM |
| B11 | – | 9.91 nM |
| B12 | – | 1.64 nM |
| B13 | no binding (tested: up to 300 or 900 nM analyte) | – |

What follows are binders tested against T3, Mouse nectin-4 ECD-6His (TNT-250) (mouse, UniProt Q8R007 31-347) (assay: SPR Biacore 8K, mAb on protein A).
T3 construct: entry includes the 6His tag; also called mouse nectin-4-LCD
T3 sequence: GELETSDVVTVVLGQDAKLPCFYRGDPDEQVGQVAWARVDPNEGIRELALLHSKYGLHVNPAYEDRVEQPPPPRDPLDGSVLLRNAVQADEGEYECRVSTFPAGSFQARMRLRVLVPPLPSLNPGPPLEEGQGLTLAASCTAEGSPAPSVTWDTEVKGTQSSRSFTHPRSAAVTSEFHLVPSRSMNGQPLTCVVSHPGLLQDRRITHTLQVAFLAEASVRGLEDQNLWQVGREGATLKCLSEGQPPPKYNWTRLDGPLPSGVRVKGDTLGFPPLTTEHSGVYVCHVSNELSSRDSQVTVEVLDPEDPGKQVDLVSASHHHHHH
Method: as §1, §2

| Binder | binding result | Kd |
| --- | --- | --- |
| B1 | no binding (tested: up to 300 or 900 nM analyte) | – |
| B2 | no binding (tested: up to 300 or 900 nM analyte) | – |
| B3 | – | 820 nM |
| B4 | – | 68.4 nM |
| B5 | no binding (tested: up to 300 or 900 nM analyte) | – |
| B6 | no binding (tested: up to 300 or 900 nM analyte) | – |
| B7 | no binding (tested: up to 300 or 900 nM analyte) | – |
| B8 | no binding (tested: up to 300 or 900 nM analyte) | – |
| B9 | no binding (tested: up to 300 or 900 nM analyte) | – |
| B10 | no binding (tested: up to 300 or 900 nM analyte) | – |
| B11 | no binding (tested: up to 300 or 900 nM analyte) | – |
| B12 | no binding (tested: up to 300 or 900 nM analyte) | – |
| B13 | no binding (tested: up to 300 or 900 nM analyte) | – |

Molecular target: T4, Cyno nectin-4 ECD-6His (TNT-255) (cynomolgus, UniProt Q96NY8 32-349 (human entry))
T4 construct: entry includes the 6His tag
T4 chain: T1 sequence with V39A, I230V
Assay: SPR Biacore 8K, mAb on protein A
Method: as §1, §2

| Binder | Kd |
| --- | --- |
| B1 | 1.78 nM |
| B2 | 24.4 nM |
| B3 | 727 nM |
| B4 | 48.9 nM |
| B5 | 18.3 nM |
| B6 | 51.5 nM |
| B7 | 32.8 nM |
| B8 | 13.7 nM |
| B9 | 211 nM |
| B10 | 56 nM |
| B11 | 35.9 nM |
| B12 | 2.85 nM |
| B13 | 8.67 nM |
